In the supplement of paper PMC10065799, “High-throughput profiling of sequence recognition by tyrosine kinases and SH2 domains using bacterial peptide display” (eLife, 2023):

The sequences below were run on Fer (mouse) (assay: phosphorylation enrichment, bacterial display (enrichment ratio); higher = better substrate or ligand; peptides without Tyr show the background).
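For SH2 binding enrichment of the phosphorylated peptide, bacterial display in this document: peptide library displayed on the E. coli surface as eCPX fusions, selected cells deep-sequenced, score is each peptide's frequency after selection divided by its frequency in the input.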
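For phosphorylation enrichment, bacterial display in this document: 11-residue human phosphosite peptides and single-mutation variants displayed on the E. coli surface, counted by deep sequencing, each peptide's frequency after selection divided by its frequency in the unselected input library; frequency after pTyr selection over input frequency; kinase dosed for 20-30% of maximal phosphorylation in three min.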

In order of falling phosphorylation enrichment:
1. IGEVVYQWAVM [GRIN2A_Y502_R504W]  7.77
2. HESEIYCKVCF [CSRP3_Y57_YF]  2.49
3. SSEYHYVGGFY [CTSC_Y347]  2.24
4. YADPYYDYEIE [ZC3H18_Y372]  1.58
5. RDMMDYMPQGV [CYP21A2_Y259_L261P]  0.937
6. HVIKLFGACSQ [RET_Y791_Y791F]  0.763
7. QGQHWYSSSDT [CASP10_Y9_K14T]  0.755
8. GNLLIYTDFGK [HGD_Y166_E168D]  0.726
9. NNHGNYIVHLG [ETFDH_Y172_R175H]  0.712
10. DSDTDYGSGYP [RNASEH2A_Y206_L202S]  0.646
11. FMGVEYSSCDT [EPHA3_Y937_T933M]  0.64
12. RDLTHYLMKIL [ACTG1_Y188_D187H]  0.64
13. RRNTYYASIAK [ACADM_Y353]  0.611
14. NDTAGYFVIGG [SEL1L3_Y399_I401V]  0.581
15. QGQHWYSSSDK [CASP10_Y9]  0.579
16. PHMQTYEVDHN [SDHB_Y61_L65H]  0.571
17. CTTIHDNYMCN [TP53_Y234_Y234D]  0.54
18. ASLLPYFPAIM [IPO4_Y518]  0.532
19. KLFFIYTSGTT [SLC27A4_Y245_YF]  0.529
20. IENPQYFSDAC [NTRK1_Y496]  0.524
21. EMTRNYIIFIE [BCO2_Y294_G289E]  0.487
22. SIKDKYVTALC [KCNH2_Y611_Y616C]  0.467
23. SSLEDYVRETN [GIMAP6_Y176_G171S]  0.466
24. ADLAKYICENQ [ALB_Y287]  0.459
25. WNGDKYAATTT [TRIM39_Y439]  0.446
26. NDFGNYSNQSS [HNRNPA1_Y318_N319S]  0.43
27. KPVDTYYDSTR [DYNC2H1_Y2230_M2227V]  0.427
28. LTGIAYGLPHW [SLC22A14_Y291_S292G]  0.424
29. TNYRFYLRSLE [MTM1_Y71_L70F]  0.421
30. SLNAVYPRAGR [OAS3_Y376_S381R]  0.384
31. KFVKMCDNHQL [MYO9A_Y203_Y203C_YF]  0.358
32. KGERGYPGTLG [COL4A1_Y348_P352L]  0.345
33. ASTDYYKRGDF [PDHA1_Y243]  0.321

The sequences below were run against SHP2-C SH2 (assay: SH2 binding enrichment of the phosphorylated peptide, bacterial display (enrichment ratio); higher = better substrate or ligand; peptides without Tyr show the background).

In order of falling SH2 binding enrichment:
1. SSEYHYVGGFY [CTSC_Y347]  4.12
2. RRNTYYASIAK [ACADM_Y353]  1.66
3. RDLTHYLMKIL [ACTG1_Y188_D187H]  1.54
4. HESEIYCKVCF [CSRP3_Y57_YF]  1.35
5. LTGIAYGLPHW [SLC22A14_Y291_S292G]  1.23
6. IENPQYFSDAC [NTRK1_Y496]  1.02
7. HVIKLFGACSQ [RET_Y791_Y791F]  0.979
8. EMTRNYIIFIE [BCO2_Y294_G289E]  0.903
9. NNHGNYIVHLG [ETFDH_Y172_R175H]  0.856
10. CTTIHDNYMCN [TP53_Y234_Y234D]  0.837
11. QGQHWYSSSDT [CASP10_Y9_K14T]  0.83
12. QGQHWYSSSDK [CASP10_Y9]  0.829
13. GNLLIYTDFGK [HGD_Y166_E168D]  0.822
14. ASLLPYFPAIM [IPO4_Y518]  0.806
15. SIKDKYVTALC [KCNH2_Y611_Y616C]  0.801
16. RDMMDYMPQGV [CYP21A2_Y259_L261P]  0.8
17. KFVKMCDNHQL [MYO9A_Y203_Y203C_YF]  0.795
18. NDTAGYFVIGG [SEL1L3_Y399_I401V]  0.784
19. SSLEDYVRETN [GIMAP6_Y176_G171S]  0.776
20. ADLAKYICENQ [ALB_Y287]  0.754
21. ASTDYYKRGDF [PDHA1_Y243]  0.753
22. TNYRFYLRSLE [MTM1_Y71_L70F]  0.717
23. KLFFIYTSGTT [SLC27A4_Y245_YF]  0.664
24. KPVDTYYDSTR [DYNC2H1_Y2230_M2227V]  0.64
25. SLNAVYPRAGR [OAS3_Y376_S381R]  0.63
26. NDFGNYSNQSS [HNRNPA1_Y318_N319S]  0.625
27. IGEVVYQWAVM [GRIN2A_Y502_R504W]  0.61
28. WNGDKYAATTT [TRIM39_Y439]  0.61
29. PHMQTYEVDHN [SDHB_Y61_L65H]  0.604
30. FMGVEYSSCDT [EPHA3_Y937_T933M]  0.588
31. YADPYYDYEIE [ZC3H18_Y372]  0.545
32. KGERGYPGTLG [COL4A1_Y348_P352L]  0.537
33. DSDTDYGSGYP [RNASEH2A_Y206_L202S]  0.405

What follows are sequences tested against c-Src SH2 in the same assay as above.

In order of falling SH2 binding enrichment:
1. NDTAGYFVIGG [SEL1L3_Y399_I401V]  7.22
2. YADPYYDYEIE [ZC3H18_Y372]  2.04
3. RDLTHYLMKIL [ACTG1_Y188_D187H]  1.6
4. HESEIYCKVCF [CSRP3_Y57_YF]  1.54
5. QGQHWYSSSDT [CASP10_Y9_K14T]  1.53
6. SSEYHYVGGFY [CTSC_Y347]  1.49
7. FMGVEYSSCDT [EPHA3_Y937_T933M]  1.43
8. QGQHWYSSSDK [CASP10_Y9]  1.21
9. RRNTYYASIAK [ACADM_Y353]  0.953
10. KPVDTYYDSTR [DYNC2H1_Y2230_M2227V]  0.923
11. CTTIHDNYMCN [TP53_Y234_Y234D]  0.922
12. LTGIAYGLPHW [SLC22A14_Y291_S292G]  0.768
13. GNLLIYTDFGK [HGD_Y166_E168D]  0.765
14. ASLLPYFPAIM [IPO4_Y518]  0.672
15. HVIKLFGACSQ [RET_Y791_Y791F]  0.667
16. EMTRNYIIFIE [BCO2_Y294_G289E]  0.625
17. ADLAKYICENQ [ALB_Y287]  0.607
18. PHMQTYEVDHN [SDHB_Y61_L65H]  0.591
19. KFVKMCDNHQL [MYO9A_Y203_Y203C_YF]  0.587
20. NNHGNYIVHLG [ETFDH_Y172_R175H]  0.587
21. SIKDKYVTALC [KCNH2_Y611_Y616C]  0.555
22. IGEVVYQWAVM [GRIN2A_Y502_R504W]  0.532
23. SSLEDYVRETN [GIMAP6_Y176_G171S]  0.532
24. IENPQYFSDAC [NTRK1_Y496]  0.524
25. TNYRFYLRSLE [MTM1_Y71_L70F]  0.495
26. WNGDKYAATTT [TRIM39_Y439]  0.481
27. KLFFIYTSGTT [SLC27A4_Y245_YF]  0.478
28. SLNAVYPRAGR [OAS3_Y376_S381R]  0.466
29. DSDTDYGSGYP [RNASEH2A_Y206_L202S]  0.442
30. ASTDYYKRGDF [PDHA1_Y243]  0.44
31. KGERGYPGTLG [COL4A1_Y348_P352L]  0.421
32. NDFGNYSNQSS [HNRNPA1_Y318_N319S]  0.421
33. RDMMDYMPQGV [CYP21A2_Y259_L261P]  0.391

The sequences below were run against Grb2 SH2 (UniProt P62993) in the same assay as above.
Grb2 SH2, sequence (P62993 whole entry, looked up): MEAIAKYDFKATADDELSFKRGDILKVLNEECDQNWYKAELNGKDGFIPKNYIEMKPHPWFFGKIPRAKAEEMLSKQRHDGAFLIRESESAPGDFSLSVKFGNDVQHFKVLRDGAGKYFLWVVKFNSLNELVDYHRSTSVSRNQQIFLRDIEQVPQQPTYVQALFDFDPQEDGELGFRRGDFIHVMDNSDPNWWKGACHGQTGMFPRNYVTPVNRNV

In order of falling SH2 binding enrichment:
1. RDLTHYLMKIL [ACTG1_Y188_D187H]  1.64
2. HESEIYCKVCF [CSRP3_Y57_YF]  1.44
3. CTTIHDNYMCN [TP53_Y234_Y234D]  1.21
4. EMTRNYIIFIE [BCO2_Y294_G289E]  1.19
5. ASLLPYFPAIM [IPO4_Y518]  1.15
6. PHMQTYEVDHN [SDHB_Y61_L65H]  1.09
7. SSEYHYVGGFY [CTSC_Y347]  0.998
8. WNGDKYAATTT [TRIM39_Y439]  0.994
9. HVIKLFGACSQ [RET_Y791_Y791F]  0.938
10. SIKDKYVTALC [KCNH2_Y611_Y616C]  0.918
11. RDMMDYMPQGV [CYP21A2_Y259_L261P]  0.909
12. QGQHWYSSSDK [CASP10_Y9]  0.905
13. SSLEDYVRETN [GIMAP6_Y176_G171S]  0.899
14. TNYRFYLRSLE [MTM1_Y71_L70F]  0.895
15. GNLLIYTDFGK [HGD_Y166_E168D]  0.891
16. LTGIAYGLPHW [SLC22A14_Y291_S292G]  0.89
17. RRNTYYASIAK [ACADM_Y353]  0.889
18. KGERGYPGTLG [COL4A1_Y348_P352L]  0.873
19. ADLAKYICENQ [ALB_Y287]  0.868
20. NNHGNYIVHLG [ETFDH_Y172_R175H]  0.863
21. SLNAVYPRAGR [OAS3_Y376_S381R]  0.851
22. KPVDTYYDSTR [DYNC2H1_Y2230_M2227V]  0.848
23. IGEVVYQWAVM [GRIN2A_Y502_R504W]  0.845
24. QGQHWYSSSDT [CASP10_Y9_K14T]  0.827
25. KLFFIYTSGTT [SLC27A4_Y245_YF]  0.801
26. KFVKMCDNHQL [MYO9A_Y203_Y203C_YF]  0.8
27. NDFGNYSNQSS [HNRNPA1_Y318_N319S]  0.795
28. IENPQYFSDAC [NTRK1_Y496]  0.789
29. YADPYYDYEIE [ZC3H18_Y372]  0.787
30. ASTDYYKRGDF [PDHA1_Y243]  0.767
31. DSDTDYGSGYP [RNASEH2A_Y206_L202S]  0.688
32. NDTAGYFVIGG [SEL1L3_Y399_I401V]  0.664
33. FMGVEYSSCDT [EPHA3_Y937_T933M]  0.598
